{"source": "paper PMC11804575", "molecular_target": "heat shock protein 90 (HSP90) (UniProt P07900)", "experiment": "co-immunoprecipitation (anti-HA) with immunoblot quantification (ImageJ)", "conditions": "HEK293T cells; endogenous HSP90; n = 3; parent: est. 1.0; read off a plot"}
{"substance": "BRAF^V600E (from UniProt P15056) R509H; 621APE-AAE", "values": [{"measurement": "response (HSP90/HA-BRAF normalized to V600E)", "value": 12}]}
